In US20170022281A1 (AbbVie / Abbott, published 2017):

T1: mouse PRLR on Baf3-mPRLR cells (mouse, UniProt Q08501 20-608)
T1 sequence (looked up): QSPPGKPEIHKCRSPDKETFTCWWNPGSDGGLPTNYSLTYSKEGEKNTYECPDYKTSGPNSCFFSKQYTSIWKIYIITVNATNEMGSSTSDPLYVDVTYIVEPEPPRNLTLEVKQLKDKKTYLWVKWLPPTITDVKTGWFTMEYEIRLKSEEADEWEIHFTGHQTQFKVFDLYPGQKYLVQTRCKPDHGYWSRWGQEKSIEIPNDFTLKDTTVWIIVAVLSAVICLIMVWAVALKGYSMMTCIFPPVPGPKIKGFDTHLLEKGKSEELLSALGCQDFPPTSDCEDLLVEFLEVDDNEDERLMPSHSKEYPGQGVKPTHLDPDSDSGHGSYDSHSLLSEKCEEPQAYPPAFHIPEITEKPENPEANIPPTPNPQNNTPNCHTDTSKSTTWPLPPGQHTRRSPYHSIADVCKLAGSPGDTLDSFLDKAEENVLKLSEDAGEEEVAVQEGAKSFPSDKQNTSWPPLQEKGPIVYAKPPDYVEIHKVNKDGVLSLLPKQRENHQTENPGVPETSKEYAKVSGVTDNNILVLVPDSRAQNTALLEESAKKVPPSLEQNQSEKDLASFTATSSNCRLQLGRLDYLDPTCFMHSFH

T2: human PRLR on cells (human, UniProt P16471 25-622)
T2 sequence: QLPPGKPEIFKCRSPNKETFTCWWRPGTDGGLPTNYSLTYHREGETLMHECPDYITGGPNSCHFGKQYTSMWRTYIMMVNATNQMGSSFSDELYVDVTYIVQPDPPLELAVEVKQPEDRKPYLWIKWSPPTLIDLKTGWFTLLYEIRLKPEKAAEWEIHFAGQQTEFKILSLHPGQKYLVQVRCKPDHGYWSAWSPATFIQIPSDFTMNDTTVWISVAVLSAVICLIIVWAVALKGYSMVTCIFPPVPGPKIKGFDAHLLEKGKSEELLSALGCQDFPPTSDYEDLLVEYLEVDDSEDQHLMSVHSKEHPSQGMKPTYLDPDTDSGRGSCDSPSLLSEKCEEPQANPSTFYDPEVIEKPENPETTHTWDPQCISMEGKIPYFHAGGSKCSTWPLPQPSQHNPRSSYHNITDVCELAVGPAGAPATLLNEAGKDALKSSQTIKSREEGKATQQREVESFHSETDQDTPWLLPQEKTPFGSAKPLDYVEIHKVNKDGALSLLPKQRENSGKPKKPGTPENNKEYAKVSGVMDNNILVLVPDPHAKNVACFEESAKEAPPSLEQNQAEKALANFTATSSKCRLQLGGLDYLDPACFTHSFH

T3: cyno PRLR ECD-his6 protein (cyno)
T3 chain: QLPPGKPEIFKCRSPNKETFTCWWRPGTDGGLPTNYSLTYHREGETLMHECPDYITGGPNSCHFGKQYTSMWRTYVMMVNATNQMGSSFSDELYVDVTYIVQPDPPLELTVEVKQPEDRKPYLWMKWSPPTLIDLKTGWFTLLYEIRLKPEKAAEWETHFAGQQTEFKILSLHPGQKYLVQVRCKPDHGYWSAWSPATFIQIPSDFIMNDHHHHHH

T4: human PRLR ECD-Fc fusion protein (human, UniProt P16471 25-233)
T4 construct: not shown: Fc region (captured by goat anti-human Fc)
T4 sequence: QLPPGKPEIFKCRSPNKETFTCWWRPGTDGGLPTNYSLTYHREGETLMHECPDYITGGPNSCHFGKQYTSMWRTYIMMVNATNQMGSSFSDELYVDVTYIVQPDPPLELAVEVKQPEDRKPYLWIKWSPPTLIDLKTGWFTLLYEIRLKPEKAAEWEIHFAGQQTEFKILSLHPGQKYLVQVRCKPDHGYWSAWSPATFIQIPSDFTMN

T5: human PRLR (Biacore antigen) (human, UniProt P16471 25-234, limits assumed)
T5 construct: The construct injected over captured antibody is not described (a soluble form is likely); also called huPRLR
T5 sequence: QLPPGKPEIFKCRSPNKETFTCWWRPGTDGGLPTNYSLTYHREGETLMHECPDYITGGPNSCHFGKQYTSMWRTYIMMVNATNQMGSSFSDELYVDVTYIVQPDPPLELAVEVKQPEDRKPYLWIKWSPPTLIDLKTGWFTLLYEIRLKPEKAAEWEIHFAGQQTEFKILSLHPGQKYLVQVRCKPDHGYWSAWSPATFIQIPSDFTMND


Assays:
[1] = target: T1, mouse PRLR on Baf3-mPRLR cells; test: cell-based or functional assay
[2] = target: cyno PRLR on Baf3-cyPRLR cells (cyno); test: cell-based or functional assay
human PRLR on cells = target: T2, human PRLR on cells; test: cell-based or functional assay
[3] = target: T3, cyno PRLR ECD-his6 protein; test: ELISA on ECD
Description: (§1) Plates were blocked for 1 hour with Superblock (Pierce) and washed (3×) with wash buffer (lx PBS (pH 7.4), 0.05% Tween 20). ECD proteins were bound to the appropriate antibody (1 hour) in binding buffer (wash buffer plus 10% Superblock), washed (3×, wash buffer), and then incubated with serial dilutions of antibodies (1 hour) in binding buffer. After washing (3×, wash buffer), secondary antibodies conjugated to HRP were bound (1 hour) in binding buffer, washed (3×, wash buffer), and incubated with TMB substrate (Pierce) to develop signal for 3-5 minutes, stopped with 2N H₂SO₄ and scanned at […]. Curves were fit with GraphPad 5 (Prizm) and EC50's were determined with curve fitting function of GraphPad 5.

[4] = target: T4, human PRLR ECD-Fc fusion protein; test: ELISA on ECD
Description: as §1

[5] = target: T5, human PRLR (Biacore antigen); test: SPR Biacore
How it was run: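 Association rate, dissociation rate and dissociation constant were measured by surface plasmon resonance on a Biacore instrument. PRLR antigen was tested at 600 nM, 66.67 nM and 7.41 nM, a 3-point, 9-fold dilution series. Constants came from a 1:1 binding model fit (local Rmax, mass-transport term included) in Biacore T200 Evaluation Software.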

Binder	Baf3-mPRLR proliferation IC50 [1] [µg/mL]	Baf3-cyPRLR proliferation IC50 [2] [µg/mL]	Baf3-hPRLR proliferation IC50 (human PRLR on cells) [µg/mL]	EC50 [3] [nM]	EC50 [4] [nM]	Kd [5] [nM]	koff [5] [s⁻¹]	kon [5] [M⁻¹ s⁻¹]
Ab14 (antibody, human IgG1, kappa, V domains shown, humanized from Ab6; G1; also called Ab1 HC.1 & Ab1 LC.1) VH: EVQLVQSGAEVKKPGSSVKVSCKASGYTFTTYWMHWVRQAPGQGLEWMGEIDPSDSYSNYNQKFKDRVTITADKSTSTAYMELSSLRSEDTAVYYCARNGGLGPAWFSYWGQGTLVTVSS VL: DIQMTQSPSSVSASVGDRVTITCKASQYVGTAVAWYQQKPGKAPKLLIYSASNRYTGVPSRFSGSGSGTDFTLTISSLQPEDFATYYCQQYSSYPWTFGGGTKVEIKR	> 30	1.15	0.3	0.031	0.0329	4.16	0.00458	1.1e+06
Ab16 (antibody, human IgG1, kappa, V domains shown, humanized from Ab6; G1; also called Ab1 HC.1 and Ab1 LC.2) VH: EVQLVQSGAEVKKPGSSVKVSCKASGYTFTTYWMHWVRQAPGQGLEWMGEIDPSDSYSNYNQKFKDRVTITADKSTSTAYMELSSLRSEDTAVYYCARNGGLGPAWFSYWGQGTLVTVSS VL: EIVMTQSPATLSVSPGERATLSCKASQYVGTAVAWYQQKPGQAPRLLIYSASNRYTGIPARFSGSGSGTEFTLTISSLQSEDFAVYYCQQYSSYPWTFGGGTKVEIKR	> 30	1.73	0.46	0.0671	0.0641	4.05	0.00562	1.39e+06
Ab18 (antibody, human IgG1, kappa, V domains shown, humanized from Ab6; G1; also called Ab1 HC.1a and Ab1 LC.1) VH: EVQLVQSGAEVKKPGSSVKVSCKASGYTFTTYWMHWVRQAPGQGLEWIGEIDPSDSYSNYNQKFKDRATLTVDKSTSTAYMELSSLRSEDTAVYYCARNGGLGPAWFSYWGQGTLVTVSS VL: DIQMTQSPSSVSASVGDRVTITCKASQYVGTAVAWYQQKPGKAPKLLIYSASNRYTGVPSRFSGSGSGTDFTLTISSLQPEDFATYYCQQYSSYPWTFGGGTKVEIKR	> 30	0.4	0.15	0.111	0.0675	1.62	0.00171	1.06e+06
Ab17 (antibody, human IgG1, kappa, V domains shown, humanized from Ab6; G1; also called Ab1 HC.1 and Ab1 LC.2a) VH: EVQLVQSGAEVKKPGSSVKVSCKASGYTFTTYWMHWVRQAPGQGLEWMGEIDPSDSYSNYNQKFKDRVTITADKSTSTAYMELSSLRSEDTAVYYCARNGGLGPAWFSYWGQGTLVTVSS VL: EIVMTQSPATLSVSPGERATLSCKASQYVGTAVAWYQQKPGQSPRLLIYSASNRYTGVPARFSDSGSGTEFTLTISSLQSEDFAVYFCQQYSSYPWTFGGGTKVEIKR	> 30	0.27	0.14	0.0788	0.0766	1.06	0.00132	1.25e+06
Ab15 (antibody, human IgG1, kappa, V domains shown, humanized from Ab6; G1; also called Ab1 HC.1 and Ab1 LC.1a) VH: EVQLVQSGAEVKKPGSSVKVSCKASGYTFTTYWMHWVRQAPGQGLEWMGEIDPSDSYSNYNQKFKDRVTITADKSTSTAYMELSSLRSEDTAVYYCARNGGLGPAWFSYWGQGTLVTVSS VL: DIQMTQSPSSVSASVGDRVTITCKASQYVGTAVAWYQQKPGKSPKLLIYSASNRYTGVPSRFSDSGSGTDFTLTISSLQPEDFATYFCQQYSSYPWTFGGGTKVEIKR	> 30	0.19	0.13	0.0551	0.0781	0.837	0.000972	1.16e+06
Ab44 (antibody, human IgG1, kappa, V domains shown, humanized from Ab8; G1; also called Ab3 HC.1 and Ab3 LC.1) VH: EVQLVQSGAEVKKPGASVKVSCKASGYTFTDYNIHWVRQAPGQGLEWMGYIYPNNDGTGYNQKFKSRVTMTTDTSTSTAYMELRSLRSDDTAVYYCARGDGNYVGDMDYWGQGTTVTVSS VL: DIQMTQSPSSLSASVGDRVTITCRASENIYSYLAWYQQKPGKAPKLLIYNAKTLAEGVPSRFSGSGSGTDFTLTISSLQPEDFATYYCQHHYATPFTFGQGTKLEIKR	> 30	1.76	0.3	0.0945	0.0435			
Ab50 (antibody, human IgG1, kappa, V domains shown, humanized from Ab8; G1; also called Ab3 HC.1b and Ab3 LC.1) VH: EVQLVQSGAEVKKPGASVKVSCKASGYTFTDYNIHWVRQAPGQGLEWIGYIYPNNDGTGYAQKLQGRVTMTVDTSTSTAYMELRSLRSDDTAVYYCARGDGNYVGDMDYWGQGTTVTVSS VL: DIQMTQSPSSLSASVGDRVTITCRASENIYSYLAWYQQKPGKAPKLLIYNAKTLAEGVPSRFSGSGSGTDFTLTISSLQPEDFATYYCQHHYATPFTFGQGTKLEIKR	> 30	41.6	0.51		0.109			
Ab52 (antibody, human IgG1, kappa, V domains shown, humanized from Ab8; G1; also called Ab3 HC.1b and Ab3 LC.1b) VH: EVQLVQSGAEVKKPGASVKVSCKASGYTFTDYNIHWVRQAPGQGLEWIGYIYPNNDGTGYAQKLQGRVTMTVDTSTSTAYMELRSLRSDDTAVYYCARGDGNYVGDMDYWGQGTTVTVSS VL: DIQMTQSPSSLSASVGDRVTITCRASENIYSYLAWYQQKPGKAPKLLVYNAKTLAEGVPSRFSGSGSGTDFTLTISSLQPEDFATYYCQHHYATPFTFGQGTKLEIKR	> 30	305	0.51		0.0913			
Ab47 (antibody, human IgG1, kappa, V domains shown, humanized from Ab8; G1; also called Ab3 HC.1a and Ab3 LC.1) VH: EVQLVQSGAEVKKPGASVKVSCKASGYTFTDYNIHWVRQAPGQGLEWIGYIYPNNDGTGYNQKFKSRATLTVDNSTSTAYMELRSLRSDDTAVYYCARGDGNYVGDMDYWGQGTTVTVSS VL: DIQMTQSPSSLSASVGDRVTITCRASENIYSYLAWYQQKPGKAPKLLIYNAKTLAEGVPSRFSGSGSGTDFTLTISSLQPEDFATYYCQHHYATPFTFGQGTKLEIKR	> 30	3.01	0.4	0.119	0.0819			
Ab51 (antibody, human IgG1, kappa, V domains shown, humanized from Ab8; G1; also called Ab3 HC.1b and Ab3 LC.1a) VH: EVQLVQSGAEVKKPGASVKVSCKASGYTFTDYNIHWVRQAPGQGLEWIGYIYPNNDGTGYAQKLQGRVTMTVDTSTSTAYMELRSLRSDDTAVYYCARGDGNYVGDMDYWGQGTTVTVSS VL: DIQMTQSPSSLSASVGDRVTITCRASENIYSYLAWYQQKPGKPPKLLVYNAKTLAEGVPSRFSGSGSGTDFTLTISSLQPEDFATYYCQHHYATPFTFGQGTKLEIKR	> 30	100	0.55		0.287			
